Results on 16 sequences are retold here after the DeepSol protein solubility set.

The data set can be described thus: soluble on expression in E. coli; label from the status in PepcDB or PDB records.
In the case of “MTQAIKRVGVTDVVLRDAHQSLFATRLRIDDMLPIAQQLDQIGYWSLECWGGATFDSCIRFLGEDPWQRLRLLKQAMPNTPLQMLLRGQNLLGYRHYADDVVDTFVERAVKNGMDVFRVFDAMNDVRNMQQALQAVKKMGAHAQGTLCYTTSPVHNLQTWVDVAQQLAELGVDSIALKDMAGILTPYAAEELVSTLKKQVDVELHLHCHSTAGLADMTLLKAIEAGVDRVDTAISSMSGTYGHPATESLVATLQGTGYDTGLDIAKLEQIAAYFRDVRKKYHAFEGMMKGSDARILVAQVPGGMLTNMESQLKQQNALDKLDLVLEEIPRVREELGFLPLVTPTSQIVGTQAVINVVLGERYKTITKETSGVLKGEYGKTPAPVNTELQARVLAGAEAITCRPADLIAAEMPTLQDRVLQQAKEQHITLAENAIDDVLTIALFDQVGWKFLANRHNLEHHHHHH”, the “soluble on expression in E. coli” value was “soluble”.
“MTQMKIFVIGAHGQIGKKIVSKLVAQGDQVYAGIRQPEQAEAFEDAGAQPVQFNLMAQPEDLALAFNGMDAIVFAAGSGGQTGYDMTLMIDLDGAVKSMVAAKIAGVKRYVIISAEFTPDRSRWPRALQPYYVAKYYADEWLKNRTQLDYTILQPGTLINDAGTGKVTVNPDVGGEITRDDVATFTVQTLHTPATVGKTIALINGDTPISKAVQQA”: the “soluble on expression in E. coli” value is reported as “not soluble”.
With “MTQVIIDGDACPVTNSIIELTKGTGIFVTVVRSFSHFSTVIQPEHVNIIYVDDGPDAVDYRIVKLVHSDDLVVTQDYGLASLLLNKAKIVMHHKGFIYNQENINTLLEQRHASAQFRKSGLEHHHHHH”, the “soluble on expression in E. coli” value is on record as “not soluble”.
Then “MTRDEMRYMLETEGVLENEELEMLQGVFSLDTKVAREVMVPRTDAFMVDIQDDVQENINLILGENYSRIPVYSEDKDKIVGILHTKTLLKAARNLGFENIELGAIIQEPLFVPETIFIDDLLYELKRTQNQMAILLDEYGGVVGLATLEDLLEEIVGEID”, with “not soluble”; and “MTRHQTHLPFHIVQEGNSIDKPPYSYVALIAMAIDASPDKRMTLNQIYKFIEAKFPYYRDADAKRKQGWQNSIRHNLSLNDCFVKKARDGQSCANDRKGNYWQMVADNAPQFDNGNFKRRRVKRLGIGKMGYANTTETTETGTILQQQLPFFNGLKWPQNIQTMDPFQFFKFQYPNSITDSANTSQINNSSSSSSSFDTSIYTSAFPIPTSHFDTNLVAPSQPPPVVSDVEVVPSDTVKEEVLVDMKPLIPGISSTTFLTSLQMTDPRSIEQQQLLSTASNMYPNAFMPPYTNWSCQPTTTFTGLSFDDPSLYGYGQQFPASS”, with “not soluble”.
Then “MTRIAIVGAGPAGLSLAYFLKGSRKVEATVYESMPEPGLKPCAWGLITGIENIIPIPNETIISEIRGFRIYLDNKLVFDIRTDNKLGYIIDKPLFLKRLSQEVNVEFNSKVVKKDDKYYINDKSLDHDKVIFATGHYSVSKSMSIPAIQYITDYEIDKEVVEFYFYSGFLGYAWVFPDREGSKIGIGGYAEVPELKERLKQILKGRIRTFHGARVTDYGVIEDRLDGNYTGEALGTVYAITGEGIRPSIISSKILADSILNRKDFKKEFKKSKLYWSLNWHAKIIKMTKENDPGTARLSKALLNNDPQLILKFAIGEFNRVDLIKIFGRSLILEHHHHHH”, with “soluble”; and “MTRIISIVSGKGGTGKTTVTANLSVALGEMGRKVLAVDGDLTMANLSLVLGVDDVNITLHDVLAGDAKLEDAIYMTQFENVYILPGAVDWEHVIKADPRKLPEVIKSLKGKYDFILIDCPAGLQLRAMSAMLSGEEAILVTNPEISCLTDTMKVGMVLKKAGLAILGFILNRYGRSERDIPPEAAQDVMDVPLLAVIPEDPVIREGTLEGIPAVKYKPESKGAQAFIKLAEEVDKLAGIKAKI”, with “soluble”; and “MTRSVSHPPYADPFAHPPETSPQELTAQLTPGARFQDVRFENYRPNPEFPSQAQARDQLAEFVRQAGQKASGGGFWPFKRRAPEGRGFYLDGGFGVGKTHLLASAYHAAKGQSGGSGGDVAFMSFQDLMYLIGALGMPQAIETFRNYKLLLIDEFELDDPGNTHMANTFLGGLMPSGVSVVATSNTEPGALGAGRFNAEDFQRQIQGIADRFGPHRIDGPDYRQRGTEPAQPLSEAEFAAWLARQNPQTTALMTHAELNRALLSVHPSRFARVLEQVSGVAVTNLEPMPEQGEALRFVHFVDKVYDLGLSAAFTGVPLNALFDDIYRNGGYAKKYSRALSRLSEMLREARGLEHHHHHH”, with “not soluble”.
With “MTRVLVLGGGSGGLVAANKVKRLLGKEVEVTLVDRNTHHEFMPAYPWVAFGMREPEAIRRPLANLEKRGIRYLQATVEALDPERNRVKTTAGELSYDYLIVSLGAEALPSPAQDGHAPWSLEGALKLREALRTFKGGKVVVGVSSPYYPCPPAPYEVAGQVEFALKVKGVRDKSTVEVFHLNPAPLAGMGPVISGKVLEILKSKGIAFHGGFEPVEFAGGKVKAKDGRELSYDLLILTPPFAPNRVVRESPLAGPQGFPEVDRMTFRSPRFPNVFVIGDTVNPALMLPPAGVVAHFQGEYVAGVIASDLKGAYIGEPFNPVAMCIMDFGDNALLPQCAFDRVLAGTGMPSCGVMAVGKWVRVTKMLFEGFWFATLIELEHHHHHH”, the “soluble on expression in E. coli” value is “soluble”.
Then “MTSAPMSNPSSTSSVVTAAMLAIGDELLSGRTKDKNIGHLADVLTMSGIDLKEVRIVADEEESIVEALNALRSRYDYVFTSGGIGPTHDDITADAISAAFGLPCEHDAEALRLLGDMYRVREMEFTEARKRMARMPKGAAHIANPVSVAPGFVIGNVYVMAGVPQVFQAMLDNVMPTLRTGAKVMSQAVRSPYGEGDIGTPLTAIQKAHPETSIGSYPKYDGQRFSTEIVVRARDAGLLKAATEAVAAMIEAIGQEKQLAASKGDATA”, with “not soluble”; and “MTSAWNEEWRRRRLPALAGQEWDLIVVGGGISGAGILREAARRGWRCLLLEQRDFAWGTSSRSSKMVHGGLRYIAKGQWRLTRDSVRERQRLLGEAPGLVEPLSFVMAHYRGGFPGPRLFGGLLSVYDALAGRRNHRFYDAAALRYLAPGLKEQRLLGGTRFFDAVTDDARLVLRVLAEARHDGGEAFNGMRVRELLREGGQVVGLRAEDRESGELFDFRCRALALATGAWADELRQPGGSEHIRPLRGSHLLLPAWRLPVAHAFSFMHATDRRPVFVFPWEGATVVGTTDLDHRDGLGEDARISRAELDYLLAACAQQFPAAAIEARDVLSTWAGVRPVVSSGDDSGKPSDEKREHVLWREPGCVTLAGGKLTTFRPLAVEVLQACAPLLGRTVTDDGAAVFGACEGPLIDGLGSGQRRRLAGRYGRDLVRLKRLVDTLGTDCVGASETLWAELAFAAEAEMVLHLDDLLLRRTRLGLLLPGGGAAYLPRIRALCQARLGWDDPRWEREQQAYLDLWRRHYSLPVLEHHHHHH”, with “not soluble”; and “MTSEHRSASVTPRHISFFNIPGHGHVNPSLGIVQELVARGHRVSYAITDEFAAQVKAAGATPVVYDSILPKESNPEESWPEDQESAMGLFLDEAVRVLPQLEDAYADDRPDLIVYDIASWPAPVLGRKWDIPFVQLSPTFVAYEGFEEDVPAVQDPTADRGEEAAAPAGTGDAEEGAEAEDGLVRFFTRLSAFLEEHGVDTPATEFLIAPNRCIVALPRTFQIKGDTVGDNYTFVGPTYGDRSHQGTWEGPGDGRPVLLIALGSAFTDHLDFYRTCLSAVDGLDWHVVLSVGRFVDPADLGEVPPNVEVHQWVPQLDILTKASAFITHAGMGSTMEALSNAVPMVAVPQIAEQTMNAERIVELGLGRHIPRDQVTAEKLREAVLAVASDPGVAERLAAVRQEIREAGGARAAADILEGILAEAG”, with “soluble”.
Turning to “MTSIALQLLLLLQPYTLTIRRSKMSTKLKQNLEGSFFVVSFSACSPGSKCEISCNITTFRFILYNIAPLFIARKQRQRIGQFAVVRRVRDRKTGEKYAAKFIKKRRYATSRRGVTRQNIEREVRVLQKIRGNSNVVELHAVYETASDVIIVLELVSGGELFDHVCAKECLDEVEAAAFIKQILLAVRHLHSLHIVHLDIKPENVMLKQRGDSQIKIIDFGLSREIEPGAVVKDMVGTPEFVAPEVVNYEALSPATDMWAVGVVTYILLSGGSPFLGDNRDETFSNITRVRYHFSDRYFKNTSKHAKDFIYRLFVRDVDQRATVEECLQHPWIRGPEGNAIDIRKASCITISHIQSFKTRQRWKRCVELVMVLLKASKSSRRIGDGRFDEEDMVASCTLICAEEGNLRALHKLSALHKLLPNATRKSLKSSFSEPNGATAMHCAAKYGHAEVFNYFHMKGGNICARDDNGDTPLHVACRFAQHTVAGYVANEKIDVDSINKTGETALHCAVESADTRVVRLLLQLRPRLDLPNAREETPLHVAAARGHVDCVQALLDANSPIDAVEQDGKTALIIALENGNVDIASILITNGCDINHADHHGDTALHIASKHGLLQAVQTLCHCAVTVDSVNANKKTALHLAAHYGHVDIIRVLLLARADVTLRGDDGLTAELVAVAAERLEAHSLLKMVKSQEIREEYISQLYPLDTSLRRIKLKLLGHSQSGKTRLVQTLHSSRGISSFLESVTRRISDHYSPSSSMKDDGIHSTNGSFVSESNNNSSFDLAAAAGSKYAPPHSQYTRGIDVQTVNINGCGEFSVWEFGGYEPMHTCYDHFVGNADCIHLILYRTSDPTEVQYKQILYWMNFLKGRVTPFEPIGHCGFSSRRSKVIIVGTHATSSLFPQMNQEGEYVSSDIEAMLNTVRLRFETHFDMDHRLILLDATNPSCIGMKTLKMELAKCRTNILAKLLKPLAILDTVVNHLNLVRKKHANFPVITWPDFIQLVRNEINPLTGDAHCRQIVQQLQLIGELVYLRNDLCDADYVVLNAEWFGTHILGQLLSAEFLSKASPNGSYHTSSLAKIFPEIPEQSDLMTILEVLQLCAPDARTGAHEFPVFIQTEAPDSIWRPYSLKEKERDTVYGGVRILPMRGMERSLHSTFPRIQVALRRSINDYQPAKDTQLHQWSECSKLVSQDREAVIRMVGDAVEIRARGPSESATSMFYFMEDLINLVEHAAAEVGPGISLERHFISPKHLKEHREHPALFPPESMMEMQQRESLSVKGTQDEEELFTDVVCFGSRDVARHLTLGIDVGVADLQMASRCELACLLDPPHAMGRDWSILAVKLQLTDQVPDVDSTGQSLSRTDQLLNEWAIHHPEQASVGNLCRILVELGRCDARDALYRTVPLYVFAPLEDQFLLETNDSGVVSSCHSSSEHNPINI”, the “soluble on expression in E. coli” value was “not soluble”.
As to “MTSLCNKELSDTLVGLYDDYKRGFDIGEELKLCVDLALTLELELSIHRLSETDTVLKKEIIQTLQNRRNSHSNEDETIDETGTIIQMDFKERN”, the “soluble on expression in E. coli” value was “soluble”.
Under “MTSRTPLVSVLPDFPWDSLASAKAKAASHPDGIVNLSVGTPVDPVAPSIQIALAEAAGFSGYPQTIGTPELRAAIRGALERRYNMTKLVDASLLPVVGTKEAIALLPFALGISGTVVIPEIAYPTYEVAVVAAGCTVLRSDSLFKLGPQIPSMMFINSPSNPTGKVLGIPHLRKVVKWAQENNVILAADECYLGLGWDDENPPISILDPRVCDGDHTNLIAIHSLSKTSNLASYRAGYLVGDPALIGELTEVRKNLGLMVPFPIQQAMIAALNDDDQEAGQKLTYAIRRAKLMRALLESGFQVDNSEAGLYLWATREEPCRDTVDWFAERGILVAPGDFYGPRGAQHVRVAMTETDERVDAFVSRLS” stands “soluble”; under “MTTAAEIITVEKLNDFDYKVALQQQMVAAQNGAAAAVLRPHQIGSSPEAPQSQTSGGSTEQLQQQPLPPPTQQKQQQPLTIGPVAPNDRSTSSSSTDGPRRLHVSNIPFKYREPDLTAMFEKVGPVVDVEIIFNERGSKGFGFVTMQNPDDADRARAEFNGTTIEGRRVEVNLATQRVHNKKAKPLMSVGVDAMSAQNALISQQQQIQRAALLQQQLLAQQFLVPRHQQLMMPPTSAAAISQLQALQYQQALLAAQQQQQQMQNPQFLLSLQQQQQAQAQAPPTSMAQLIQHQQQFAMDPMAQAQAQAAQAQMVTLIAFEQQRMQLQAAAAAAQGRGVPQPGRIPTSTATTGSSQNQVAAGSIGEQYLQQSMQGAVPANFHHHSQALHPAAAAAAALQRRFAPY”, “not soluble”.
